Measured values from article PMC12803514, “The RNA-binding protein HuR modulates the expression of the disease-linked CCL2 rs1024611G-rs13900T haplotype”.

Molecular target: HuR (ELAVL1 human recombinant protein) (Homo sapiens, UniProt Q15717 1-326)
Experiment: EMSA; HuR 0-150 µM as printed (25-200 µM in Methods); 20 mM HEPES pH 7.6, 3 mM MgCl2, 40 mM KCl, 5% glycerol, 2 mM DTT, 20 µg yeast tRNA, 20 U RNasin, 20 µL, on ice 10 min (plus 15 min with antibody); 5% native PAGE, 0.5x TBE
Details: protein: commercial

Chain of HuR (ELAVL1 human recombinant protein) (Q15717 whole entry): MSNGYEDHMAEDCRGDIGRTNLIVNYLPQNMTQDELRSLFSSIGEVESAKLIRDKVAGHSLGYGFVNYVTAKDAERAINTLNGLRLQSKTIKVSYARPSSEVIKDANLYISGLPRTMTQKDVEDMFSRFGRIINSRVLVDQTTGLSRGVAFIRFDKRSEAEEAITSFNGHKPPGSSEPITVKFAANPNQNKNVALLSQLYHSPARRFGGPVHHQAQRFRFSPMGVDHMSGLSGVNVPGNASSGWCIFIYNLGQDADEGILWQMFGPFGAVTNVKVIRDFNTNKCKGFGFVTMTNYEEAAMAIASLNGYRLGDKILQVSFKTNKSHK

## CUUUCCCCAGACACCUUGUUUUAUUU (ssRNA) [rs13900T oligoribonucleotide]
  binding result: binds
